Consider seven substances from patent publication US20220054630A1.

Experiment [1] concerns the target sE2 wild-type (UniProt P27958). Description: BLI. In general terms: BLI is a label-free optical method that tracks binding on a fibre tip over time.
Experiment [2] addresses Wild-type (UniProt P27958). In words: BLI.

As a reminder, the Kd is the free concentration of one partner at which half of the binding sites on the other are occupied at equilibrium, for simple one-to-one binding. A higher Kd goes with weaker binding. Substance CBH-4D showed a Kd in experiment [1] of 8.4 nM.
In turn, HC33.1 registered a Kd in experiment [1] of 9.5 nM.
As to HCV1, the equilibrium dissociation constant (Kd) in experiment [1] came out at 42 nM.
With HC84.1, the Kd in experiment [1] amounted to 30 nM.
On to HC84.26.WH.5DL, for which the Kd in experiment [1] and in experiment [2] was 4.3 nM throughout.
Regarding CBH-4G, the Kd in experiment [1] and in experiment [2] was 15 nM throughout.
In experiment [1], HEPC74 returned a Kd of 5.1 nM.
